Laboratory results reported in the supplement of paper PMC9170038.

System: MS2 coat protein
Assay: apparent KD of MS2 coat protein; designed switch direction (-1 OFF switch, 1 ON switch): -1; higher = weaker reporter binding
Outline: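 For each design, the apparent KD is the median over clusters of curves fitted to normalised cluster fluorescence. Clusters held RNA switches with common flanks, transcribed on Illumina chips by stalled E. coli RNA polymerase. These were titrated with SNAP-549-labelled MS2 coat protein, doubling from 0.7 or 1.5 nM to 3 µM, without input, with 200 uM small-molecule ligand, or with an oligonucleotide input.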

[1] = Eterna round: R95, input ligand: FMN 200 uM
[2] = Eterna round: R95, input ligand: microRNA oligo, concentration not stated
[3] = Eterna round: R95, input ligand: none
[4] = input ligand: microRNA oligo, concentration not stated

AGUACUAACACGAAAGUGUUAGUUCAAUAAGCUUGUGAAACAUGAGGAUCACCCAUGUCCUCAUAAGCUCGUCUUAU [salish99_TOv2_r3_040] (puzzle: Sensor v3, turn-off variant 2)
apparent KD of MS2 coat protein [1]: 15.8 nM | apparent KD of MS2 coat protein [2]: 856 nM | apparent KD of MS2 coat protein [3]: 15 nM

UAAAACGCAGAGGAUAUAUCAGAUCAAAGCUGCAUAGAAGGCUGCACAUGAGGAUCACCCAUGUGGUCUUUAAU [Mat - Exclusion 6 - JL Mod - D1] (Eterna round: R97, puzzle: Exclusion 6)
apparent KD of MS2 coat protein (input ligand: FMN 200 uM): 206 nM | apparent KD of MS2 coat protein (input ligand: none): 20.6 nM

AGUAACUAUCACGAAAGUGAUAGUUACAAAACAAGUGGAACAUGAGGAUCACCCAUGUCCUCAUUUGCUCGUCUUAU [Sensor 3 - 4] (puzzle: Sensor v3, turn-off variant 2)
apparent KD of MS2 coat protein [1]: 107 nM | apparent KD of MS2 coat protein [2]: 238 nM | apparent KD of MS2 coat protein [3]: 166 nM

AUGCCGCUAGGAUAUUGCAGCUGAUACAUGAGGAUCACCCAUGUGACUCGCUGGGUAGUGUAAGAAGGAGUGUGCU [Eternabot (L2) Solution 27] (Eterna round: R97, puzzle: Exclusion 5)
apparent KD of MS2 coat protein (input ligand: FMN 200 uM): 21.3 nM | apparent KD of MS2 coat protein (input ligand: none): 24 nM

AGUAUGCGUGUCAGGAUAUCAAUGGCUCUACCCAAUGAGAAGGGACAUGAGGAUCACCCAUGUAUGAGCCUAAA [Zatelaveus] (puzzle: Brourd's mod of Exclusion 4)
apparent KD of MS2 coat protein [1]: 15.9 nM | apparent KD of MS2 coat protein [2]: 14.1 nM | apparent KD of MS2 coat protein [3]: 14.5 nM

AAAUAAUAGAUAAAAUAAAACAUGAGGAUCACCCAUGUGGGAAGAUGAGGGUGAAACAAGCUUUUUGCUCGUCUUAU (puzzle: Sensor v3, turn-off variant 1)
apparent KD of MS2 coat protein [1]: 37.8 nM | apparent KD of MS2 coat protein [2]: 754 nM | apparent KD of MS2 coat protein [3]: 46.7 nM

AAGUUACAUGAGGAUCACCCAUGUGAGGAUAUGAGUCAGUCACGGUGACGUGGCUGACUCAGAAGGCACAAAGG [JL-ex1-4.37 salish99 mod] (Eterna round: R97, puzzle: Exclusion 1)
apparent KD of MS2 coat protein (input ligand: FMN 200 uM): 256 nM | apparent KD of MS2 coat protein (input ligand: none): 98.1 nM

GCCCGGGCAGGAUAUACAAUGAGCUUGAGAAAUCGAGUUCGACAUGAGGAUCACCCAUGUAGAAGGGCCCGGGC [-37.4, -35.1 kcal, A 28% 1] (Eterna round: R97, puzzle: Exclusion 2)
apparent KD of MS2 coat protein (input ligand: FMN 200 uM): 24.5 nM | apparent KD of MS2 coat protein (input ligand: none): 14.9 nM

GCCUGGGCAGGAUAUACAUGAGGAUCACCCAUGUCUGUUGACCGAACUCCGGAUAUAUGUAGAAGGGUCGCAGA [Eternabot (L1) Solution 100] (Eterna round: R97, puzzle: Exclusion 3)
apparent KD of MS2 coat protein (input ligand: FMN 200 uM): 55.1 nM | apparent KD of MS2 coat protein (input ligand: none): 49.8 nM

GAGGUGGGUUUUCAGAGUAACAUGAGGAUCACCCAUGUAGAAGUUGAAGGUAUCAAGCGAAUGGCUCGUCAAAUGUG [JR_SV3TOV1_Sub048] (puzzle: Sensor v3, turn-off variant 1)
apparent KD of MS2 coat protein [1]: 135 nM | apparent KD of MS2 coat protein [2]: 171 nM | apparent KD of MS2 coat protein [3]: 233 nM

ACAUGAGGAUCACCCAUGUGACCACAAUGGCUGAUGUAACGACAGGAUAUGCGUGAAUAUCUAACGCAGAAGGGUCAUGACUGG [Deportation 61 - Jieux - Exclusion NG 3] (Eterna round: R96, puzzle: Exclusion NG 3)
apparent KD of MS2 coat protein (input ligand: FMN 200 uM): 62.8 nM | apparent KD of MS2 coat protein [4]: 30.5 nM | apparent KD of MS2 coat protein (input ligand: none): 48.2 nM

GAAAACGGAGAGGAUAUUUGAGAUCAAAGCUCCAAAGAAGGCUCCACAUGAGGAUCACCCAUGUGGUCUUCAAG [Mat - Exclusion 6 - JL Mod - D14] (Eterna round: R97, puzzle: Exclusion 6)
apparent KD of MS2 coat protein (input ligand: FMN 200 uM): 86.7 nM | apparent KD of MS2 coat protein (input ligand: none): 17 nM

ACUCAGUGAGGAUAUCGCCAGAGAGCCACAACGGCCUCUGAUGAGAAGGCACAUGAGGAUCACCCAUGUAAGCA [EX4 C.2] (Eterna round: R97, puzzle: Exclusion 4)
apparent KD of MS2 coat protein (input ligand: FMN 200 uM): 45.4 nM | apparent KD of MS2 coat protein (input ligand: none): 252 nM

GCACGGAUGGUAGGAUAUCAUUGCGAUUAGCUAUGAGAAGGACCACAUGAGGAUCACCCAUGUCCUCUAAUUAGCCUUCCGUGC [Eli exng1 - 016] (Eterna round: R96, puzzle: Exclusion NG 1)
apparent KD of MS2 coat protein [4]: 156 nM

GUGUAGAGAGGAUAUACAUGAGGAUCACCCAUGUGAAUAAGAUAGAAUAAGAUAAAGUGUAGAAGGUUUAGUGU [Excluse me!!! 18 - Jieux - Exclusion 3] (puzzle: Exclusion 3)
apparent KD of MS2 coat protein [2]: 38.4 nM

AUACGCCAGGUAGGAUAUAGUACGUCGGCAACAUGAGGAUCACCCAUGUGGCCUCGUGUCUGGCACUAGAAGGGCCGAGGCCUU [Raatalave] (Eterna round: R96, puzzle: Exclusion NG 2)
apparent KD of MS2 coat protein (input ligand: FMN 200 uM): 33.5 nM | apparent KD of MS2 coat protein [4]: 26.2 nM | apparent KD of MS2 coat protein (input ligand: none): 30.9 nM

AAUAACAGAGGAUAUACUAUUUUAUGUGUUUGUUGUUUUAAACAUGAGGAUCACCCAUGUAGAAGGCUGAAUAA [JMF 18] (puzzle: Exclusion 2)
apparent KD of MS2 coat protein [2]: 20 nM

AGUACUAACACGACAGUGUUAGUACAAUAAGCUUGUGAAACAUGAGGAUCACCCAUGUCCUCAUAAGCUCGUCUUAU [salish99_TOv2_r3_031] (puzzle: Sensor v3, turn-off variant 2)
apparent KD of MS2 coat protein [1]: 18.8 nM | apparent KD of MS2 coat protein [2]: 867 nM | apparent KD of MS2 coat protein [3]: 15.2 nM

UAUAUGUCAGGAUAUUAGUUGUGUUCGAAUUUCACUUCUGCUGAGAAGGGACAUGAGGAUCACCCAUGUUCCUC [JR_Ex4_Sub006] (Eterna round: R97, puzzle: Exclusion 4)
apparent KD of MS2 coat protein (input ligand: FMN 200 uM): 17.1 nM | apparent KD of MS2 coat protein (input ligand: none): 15.9 nM

CAUGAUUGGCGAGGAUAUUGAUCUAGUUGGCGACGAGAAGGCGCCUGUCACAUGAGGAUCACCCAUGUGUGUCUGGUGAAUGAG [Ex NG1 #86] (Eterna round: R96, puzzle: Exclusion NG 1)
apparent KD of MS2 coat protein (input ligand: FMN 200 uM): 82.5 nM | apparent KD of MS2 coat protein [4]: 48.4 nM | apparent KD of MS2 coat protein (input ligand: none): 63.3 nM

GAGUAGUGAGGAUAUGCAAUGAUCAUCGUACGAUGAGGCUGACAUGAGGAUCACCCAUGUAGAAGGCGCUGAUC [EX2 #18] (Eterna round: R97, puzzle: Exclusion 2)
apparent KD of MS2 coat protein (input ligand: FMN 200 uM): 57.3 nM | apparent KD of MS2 coat protein (input ligand: none): 75.2 nM

AAUAAUAAGGAGGAUAUCGUAUCGGAAACGAUACGAGAAGGCUUAACAUGAGGAUCACCCAUGUUCCUCAAUAA [Fiskers Ex 6 - 22] (puzzle: Exclusion 6)
apparent KD of MS2 coat protein [2]: 33.5 nM

ACAUGAUACUAGGAUAUCAGCAUACUUCAAUGUUGAGAAGGAGUAACAUGAGGAUCACCCAUGUAUCCAACAUG [Exclusion 6 - 4:b] (puzzle: Exclusion 6)
apparent KD of MS2 coat protein [2]: 43.5 nM

UUUUUAUAUGAAGGAUAUACUUAACAUGAGGAUCACCCAUGUGGUGUUGUGAGUGAGUGAGUUUAGUAGAAGGUCAAGUAUUUG [JMF's solution 42] (Eterna round: R96, puzzle: Exclusion NG 2)
apparent KD of MS2 coat protein (input ligand: FMN 200 uM): 689 nM | apparent KD of MS2 coat protein [4]: 204 nM | apparent KD of MS2 coat protein (input ligand: none): 342 nM

CUGAACCCGGUAGGAUAUAUUGUGGGCAAGCGUGGAACGACAUGAGGAUCACCCAUGUAAUUUAGGUAGAAGGGCCGAGAGAUU [Excl-NG2-LRO12] (Eterna round: R96, puzzle: Exclusion NG 2)
apparent KD of MS2 coat protein (input ligand: FMN 200 uM): 32.5 nM | apparent KD of MS2 coat protein [4]: 41.5 nM | apparent KD of MS2 coat protein (input ligand: none): 41.5 nM

GGCCCUAGGGUCAGAUGCACAAGCUUUUUGCUCGUUUUAACAUGAGGAUCACCCAUGUCUAGUGGAUCUGAUCGGGU [Indiso] (puzzle: Sensor v3, turn-off variant 2)
apparent KD of MS2 coat protein [1]: 18.2 nM | apparent KD of MS2 coat protein [2]: 48.7 nM | apparent KD of MS2 coat protein [3]: 17.4 nM
